The results in this text go back to the supplement of paper PMC10567573.

± gives the standard deviation.

The data set in a line: protein stability index of a GFP-peptide fusion (GPS, HEK-293T) (PSI 1-6); higher = more stable. Particulars: c terminus: a fixed tail appended.
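Further: 24-mer peptide tiles fused after GFP, lentivirally expressed, FACS-sorted into six equal bins by GFP/DsRed ratio, decoded by Illumina sequencing, PSI is the read-weighted mean bin number.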

As to YSSGEFSSGRKWGDDAPKEEVDTG [INTS4], the protein stability index was found to be 3.1 ± 0.48 (treatment: DMSO) and 3.97 ± 0.56 (treatment: MLN4924 1 uM, 8 h).
In the same order, the values of YSSQLSQVQSLITNVESQLAEIRC [KRT34] are 3.07 ± 0.21 and 3.24 ± 0.24.
YSSSKGSLRLCDMRAAALCDKHSK [PPP2R2C] gave a protein stability index (treatment: DMSO) of 2.53 ± 0.8 and a protein stability index (treatment: MLN4924 1 uM, 8 h) of 3.11 ± 0.71.
In the same order, the values of YVKFDAVSGDYYPIIYFNDYWNLQ [CLPTM1] are 2.78 ± 0.5 and 2.8 ± 0.64.
In the same order, the values of YVVLAYTLPPASRFIIIFEQIRFV [SOAT1] are 3.27 ± 0.48 and 2.93 ± 0.53.
In the case of YYPSGDAFASGSDDATCRLYDLRA [GNB5], the protein stability index came to 2.94 ± 0.33 (treatment: DMSO) and 3.38 ± 0.34 (treatment: MLN4924 1 uM, 8 h).
For the sequence YYSDKYDDEEFEYRHVMLPKDIAK [CKS1B], the protein stability index was determined as 3.81 ± 0.12 (treatment: DMSO) and 3.91 ± 0.14 (treatment: MLN4924 1 uM, 8 h).
